Laboratory results taken from the supplement of paper PMC12042874.
± gives the uncertainty stated by the source.

Experiment: amyloid nucleation score (Sup35N fusion, yeast selection) (log enrichment); library NNK1; higher = more nucleation; inactive = no reads after selection
Outline: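 Using DiMSum, nucleation scores were taken as the log enrichment of output over input reads, centred on the mode score of non-aggregating sequences. The input and output reads came from Illumina sequencing of plasmid inserts, with sequences under 100 input reads excluded. The yeast were psi-negative, expressed Sup35N fused to peptides of 20 random codons, were induced with 100 μM copper sulfate for 24 hours, and were grown 7 days at 30°C on medium lacking adenine and uracil.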

Row | Substance | amyloid nucleation score
1 | NCIVFVSPASTKDCKWGAAS | 1.66 ± 0.35
2 | HSCYLYTSLLIFDMCRYWFL | 0.719 ± 0.48
3 | LACYDQPATSRSTAGSCPVP | 1.55 ± 0.7
4 | LSDFLRPLVLVFLSTLEVAM | 0.138 ± 0.35
5 | SFFDVLFKITWYNRVLMC | 0.362 ± 0.79
6 | CLGAVIDSGNHSNSCYIRGD | 2.07 ± 0.67
7 | GIRPPGKCMGWYLHMKFQSS | -0.391 ± 0.59
8 | RFTLCCRMNGLVRYMSEN | inactive
9 | YYASVTYFILYSHRIELVVR | 1 ± 0.65
10 | SFESYEH | 1.29 ± 0.9
11 | VSMRN | 0.305 ± 0.21
12 | LGSNNWVFGYGR | inactive
13 | CYELSGWGNSWVGNRSLGFV | 0.626 ± 0.46
14 | HHMRCLGTLNNLCKCCFEER | 3.41 ± 0.11
15 | MVRCNYRRRVGGDT | 0.905 ± 0.69
16 | SKVNISSYNSCFVRKGCQCR | 6.328 ± 0.046
17 | YVDIPVVVS | 0.235 ± 0.32
18 | SYQLSSVMDLAWMTHSTFGS | 1.8 ± 0.2
19 | GGLRWRRCFLP | -1.58 ± 0.93
20 | WGTPLMV | 0.31 ± 0.63
21 | FDLVYACANPTFGINVRTGR | 2.67 ± 0.12
22 | NMVGFILLGY | -0.179 ± 0.29
23 | KVEVWRVLGNSVQRRFSKDQ | 0.353 ± 1.1
24 | LLLLHLWLALRGLSDCSSHV | 0.626 ± 0.87
25 | VVGSMVRSGLGPQPMTS | 1.08 ± 0.68

Row | Substance | amyloid nucleation score
26 | GIVGGDQYMLFNLYVGFSYP | 1.45 ± 0.15
27 | NPLVFRN | -0.122 ± 0.61
28 | VEVSWAAQST | 0.506 ± 0.91
29 | RTRFTDASMVWDANFMSNLY | inactive
30 | KCIGKHEAVMKIFNWDEENW | 1.73 ± 0.49
31 | ISWYGFAT | inactive
32 | GLDCVRGNQWVNQGVL | 2.32 ± 0.15
33 | TKNVLLTYGHPMLDMFAVVY | inactive
34 | MINTTMRSDRRNNWLG | 2.94 ± 0.064
35 | KLLVLLNN | inactive
36 | RETYLALRRYSDLTFINRTL | 1.21 ± 0.29
37 | LTFNAMMMMIMLIMSAYIVS | 1.89 ± 0.46
38 | PIYVAGLGIVI | -0.308 ± 1.1
39 | TGLLLLIRNICYCLNLQLWG | 0.271 ± 0.53
40 | TLCQNSGKFCMYTWLSVYVD | 0.423 ± 0.26
41 | VMADYVDNSHMVVMQTCVCM | 7.667 ± 0.061
42 | LELSKTISMPVSMNRFWVIR | -1.39 ± 1.2
43 | WMYDSLDTSMTLANSHLQTL | -0.098 ± 0.51
44 | LNVCSRTPWYKSQSFVDRCV | -1.69 ± 2.4
45 | IFLYDRLNGDPFSSRW | 0.729 ± 0.9
46 | KWVEIITLCMEIWNLYIVCE | -0.048 ± 0.92
47 | ICSWVHDQWAFYYISLYYVK | -1.2 ± 0.74
48 | MRIHCVN | -0.529 ± 2.1
49 | ISTCLRTSFYVDVGNMSFCN | 0.206 ± 0.44
50 | HEPFDSDHTVARRETCLFGR | -0.928 ± 0.52

Row | Substance | amyloid nucleation score
51 | DSVNRLLSCPINKMLWSNYS | 0.233 ± 0.22
52 | ILGVFNTIVVFKR | 4.9 ± 0.066
53 | ATRVFLHIATQRSNLAYLPN | -0.189 ± 0.25
54 | SLYYEG | 0.867 ± 0.45
55 | CSKFLVVVSVYFLVYSVEHM | -0.94 ± 1.6
56 | GRGRKVYLVDLGSGL | -0.285 ± 0.53
57 | RKRHSDNYRCEVNRS | -0.235 ± 0.52
58 | AELVQFSCLKLSFKSSENPS | 3.06 ± 0.21
59 | ISTNLHGDIKMVFVAIPWQE | 4.85 ± 0.09
60 | RTIGFTEELP | -0.577 ± 0.96
61 | LMFSIFTYNFGKNWSSKSLG | 0.303 ± 0.52
62 | GVDGYDLRGLSWEVAKEFKS | 0.73 ± 0.67
63 | SMCTCLRMGRLPIQVFSWSG | -1.52 ± 2.7
64 | TRLLSYFDTRRELNCKVYYN | -0.053 ± 0.66
65 | FYLLTGLFSQVGTLLFHWSR | -0.819 ± 0.51
66 | VLYIGYYCQKSMEVLVTRSR | 1.06 ± 0.69
67 | CIIVFPISTPWAQGSYIRIQ | 0.041 ± 1.2
68 | YLDSSFFCFLVAIKMDDARH | 6.08 ± 0.087
69 | VMSKSNPIAV | 0.24 ± 0.54
70 | QMLQVPYQSFVALGVAWVRT | 0.646 ± 0.66
71 | EYVACVIEDFSVLNVVRQVD | -0.33 ± 0.21
72 | DCYHLGQTIPISRFGLRTKL | 0.826 ± 0.75
73 | TGRAPSVLHNKR | -0.842 ± 0.64
74 | VSANICNRIVDGHFSLFYLN | -0.73 ± 0.37
75 | KNDNAYCGWSWLLLTDSVHF | -0.836 ± 0.42

Row | Substance | amyloid nucleation score
76 | WMVSSVIRARGL | 3.23 ± 0.12
77 | TSDGHFSSQVDSVDESKVGE | -0.534 ± 0.46
78 | RRKESYYGSSTYVSTNYAL | -0.075 ± 0.68
79 | SKSYLVFDNISRRH | -1.11 ± 0.7
80 | NLENLCLMILRVPVSDVMQP | inactive
81 | RSEELYGQDVQEKSAGPRVS | -0.089 ± 1.2
82 | YREDKHCIHCWGVMGV | -2.16 ± 2.4
83 | RIRIFNKKSGMGQRWILVEG | -0.006 ± 0.73
84 | CPRTWFLENNRVTIMHFYRG | 6.67 ± 0.08
85 | GDGVGFVLITHWDVVDDMGC | 0.724 ± 0.93
86 | YITAWEWVQRRVV | 2.46 ± 0.18
87 | SKTGRGTLVMEVSRCEVYDF | 0.027 ± 1.7
88 | KVLWMSSHLYSATSCCVKRS | 1.82 ± 0.34
89 | DMTNAVCTRLNFIRLSTLMK | 0.041 ± 0.32
90 | NYNQGRGYRSVSSNIIEGDK | 1.74 ± 0.49
91 | SHIGIFEGFYVYLPYDCITM | inactive
92 | AVKEGWLFSQVVVERGWNL | -0.588 ± 0.63
93 | GVKFNSDMSCQFRRVLVEIA | -0.057 ± 1.7
94 | RDSGLVGIPLTRTRIVKLST | -0.35 ± 0.56
95 | LITLREVTYIFNWTFLNYLR | -0.305 ± 0.43
96 | YWLLT | -0.501 ± 0.55
97 | MLLWVWMEFY | 0.991 ± 0.33
98 | DNRSFFWNL | 2.22 ± 0.13
99 | FPSLFFLLA | inactive
100 | QAYLKVQVWLDRRNSI | inactive

Row | Substance | amyloid nucleation score
101 | PDAFKSLLLERRAWIKFVSK | 1.15 ± 0.7
102 | LILFWF | -0.5 ± 1.4
103 | SPPSSNIFPCI | 0.052 ± 0.69
104 | VYMSIRYRGSDNIRICVSVR | -0.13 ± 0.43
105 | TTVPSNV | -0.189 ± 1.7
106 | SIYIVNSLALVGMGLMSNYG | 2.81 ± 0.23
107 | FEHVPLFTTMPIEEFYRIVY | 0.262 ± 0.28
108 | KNVSRVCV | inactive
109 | QFLRALGYAERRVGRRWLGW | -0.065 ± 0.71
110 | LVIYVVSDDSVGLTNWRIVA | 3.76 ± 0.065
111 | SNYFVSVDRGIWSCCYMCSF | 7.474 ± 0.063
112 | NGNEYMVHRHADKWNTGQYR | 5.83 ± 0.084
113 | MSLNRDNDYSKLLFGSKVSQ | 0.477 ± 0.43
114 | DVTLVNFIG | 0.285 ± 0.48
115 | HCRYMMSRVILSCILARPQ | 2.55 ± 0.15
116 | FSVYAWGVFFDAVWFSCAVA | 1.29 ± 0.84
117 | CFDFYSYRVVSSAINYQFVM | -1.02 ± 0.39
118 | GGRSS | -0.058 ± 0.58
119 | LLSFAITCDSPVSRSVLFIR | -0.53 ± 0.58
120 | TLCINWKPFP | 0.308 ± 0.38
121 | WRSSHNDKMSY | -0.889 ± 0.46
122 | FMGIGPDVEDLLW | -0.538 ± 0.41
123 | SHELVKHGYKY | -0.436 ± 0.47
124 | TSSDCLLDSSIFNVGKFWYV | 0.019 ± 0.53
125 | QQSFVTSLVMYVDRYRFVQV | 0.809 ± 0.85

Row | Substance | amyloid nucleation score
126 | YHPRTSYFCDVVFRGPERGN | 1.87 ± 0.69
127 | VSIFPFLTCLVVNLMLGGPV | 4.26 ± 0.11
128 | CILSSHL | 2.61 ± 0.33
129 | SGMCNIQPQTCQ | -0.351 ± 0.39
130 | YRLRYI | inactive
131 | VQPDDLARTGRLQLVLLVWN | -0.883 ± 0.92
132 | YMKLKRVDMSVYSCCLVFGH | -0.648 ± 0.73
133 | FVFLISAL | -0.617 ± 0.5
134 | MGQGLCPRSYMFLVCELIVF | 0.818 ± 0.43
135 | PSHYWNRVLLIWRLSGCVVY | -0.145 ± 0.29
136 | HYYANSGVCSTSVNLFRLGS | 6.529 ± 0.049
137 | YPCHSREMHYCREWVRDLST | -0.396 ± 0.62
138 | CLFNSGFSDIGLRGMWGRKF | 0.358 ± 0.35
139 | DLKVNCVGEWADRLFMFSFG | 0.683 ± 0.84
140 | SQQVHISNVHVLYLRWWTGC | 0.696 ± 0.74
141 | VILECNVAGVGELAQCQCAG | 0.986 ± 0.59
142 | TYVSNNPKGNPTLHAYFSF | 0.68 ± 0.97
143 | NRHEILHIVG | 1.67 ± 0.63
144 | DGSNRHLSRSMVGRGRT | 0.335 ± 0.8
145 | LDRMFSVVRNNVTTSVLSEK | 0.234 ± 0.32
146 | MVGDARFYAANSG | 1.14 ± 0.79
147 | WYEWSPFSSTWRSSIVLFNL | 0.417 ± 0.56
148 | FIRIVRIYSLEFALYLGVFQ | 4.51 ± 0.05
149 | SLRCQFTSLLSMVCGCSLYG | 0.807 ± 0.93
150 | FRNCVF | -0.141 ± 0.49

Row | Substance | amyloid nucleation score
151 | NLTDTKLRDNGKNPALADQV | -0.226 ± 0.26
152 | LSQNLAPGIVFFAV | -1.02 ± 1.7
153 | YALRFFDDYESAAGSVR | -0.454 ± 0.66
154 | HWVDLVGESNNSISFAVVFC | 4.9 ± 0.079
155 | TFPGSHLFTFLMMEGSLNHG | 0.694 ± 0.64
156 | NVHSYRSLRLDELVMKSMCE | 2.66 ± 0.2
157 | SLSWEAYRSLLS | 1.1 ± 0.23
158 | LTARSFKCF | inactive
159 | VVRPAPRDKPTGPSLCLWGN | 0.086 ± 0.42
160 | VMSSMMWYSYHMFHPYNAFE | 1.28 ± 0.79
161 | AFLLEMKTKAATPRCYLRDM | 0.532 ± 0.85
162 | LRIARVYVYKIRAWSVVSGK | -1.35 ± 0.63
163 | TFHNSYLYGTRNVWMLYSVR | 3.47 ± 0.091
164 | RFYTYQNDVAGSDDKFSMLC | -0.232 ± 0.24
165 | YVVWQFNWLDTTHHFFELSG | -0.022 ± 0.69
166 | TSILAKNIIYCHYVGFPLGC | 5.97 ± 0.093
167 | HFRDCVPYFMVSRSRGELGE | -0.42 ± 0.75
168 | RRRIEHAALVCV | 0.055 ± 1.1
169 | RSGNVAQEMSMHPTWYEWS | 0.954 ± 0.31
170 | FMDKVFSIP | -0.101 ± 0.78
